According to patent publication US20080241162A1 (GENERAL ANTIBODIES AND BIOTECHNOLOGIES S R L, published 2008):
Numbering of substitutions follows the chain as printed.

B1: human recombinant Fab e509 (Fab, V domains shown)
VH: LLEESGAEVKKPGSSVKVSCKTSGDTFRYGITWVRQAPGQGLEWMGQIMPTFATATYAQRFQGRVTISADESTSTAYLEVRSLRSEDTAVYYCATPRQVTILRGPKALSPWDYWGQGT
VL: not shown
B2: human recombinant Fab e137 (Fab, V domains shown)
VH: LLEQSGSEVKVPGSSLKVSCKTSGGTFSTYTFSWVRQAPGQGLEWMGGITPIIGIANYARNFQDRVTITADESTSTVYMEVRRLRSEDTAVYYCAKTSEVTATRGRTFFYSAMDVWGQGT
VL: MAELTQSPSFLSASVGDRVTITCRASQGISNYLAWYQQKPGKAPKLLIYAASTLQSGVPSRFSGSGSWTEFTLTISRLQPEDFATYYCQHLNTYPWTFGQGT
B3: human recombinant Fab e20 (Fab, V domains shown)
VH: LLEQSGAEVKKPGSSVKVSCKASGDHYGINWVRQAPGQGLEWMGGIIPVFGTTTYAQKFQGRATITADDSTGTAFLELTRLTFDDTAVYFCATPHQLHVLRGGKALSPWDYWGQGT
VL: MAELTQSPATLSVSPGERATLSCRASQSVSSNLAWYQQKRGQAPSLLIYGTSTRATGIPARFSGSGSGTEFTLTISSLQSEDFAVYYCQQYNDWPSTFGQGT
B4: human recombinant Fab e301 (Fab, V domains shown)
VH: LLEQSGSEVKKPGSSVRVSCTTSGGTLSDYGFNWLRQAPGQGPEWMGGIIPLFRRTTYGQKFQGRLTITADESTGATYMELSSLRSDDTAVYYCAREKVSVLTGGKSLHYFEYWGKGT
VL: B3 VL with N32R, G50D, T53S, I58V, G64A, E70Q, V85L
B5: human recombinant Fab e8 (Fab, V domains shown)
VH: LLEQSGAEVKMPGATVKVSCQSSRYTFTSYGIGWVRQAPGQGLEWMGWISGYTHETKYAQSFQGRVTMTAETSTGTAYMELRSLRSDDTATYYCARDGGGRVVVPPTHLRAFDVWGQGT
VL: MAELTQSPGTLSLSPGERATLSCRASHRVNNNFLAWYQQKPGQAPRLLISGASTRATGIPDRFSGSGSGTDFTLTISRLEPDDFAVYYCQQYGDSPLYSFGQGT

Molecular target: purified recombinant HCV/E2 of 1a genotype (strain H) expressed in CHO cells (Hepatitis C virus genotype 1a (strain H), UniProt P27958 388-664)
Sequence (P27958 388-664 limits assumed): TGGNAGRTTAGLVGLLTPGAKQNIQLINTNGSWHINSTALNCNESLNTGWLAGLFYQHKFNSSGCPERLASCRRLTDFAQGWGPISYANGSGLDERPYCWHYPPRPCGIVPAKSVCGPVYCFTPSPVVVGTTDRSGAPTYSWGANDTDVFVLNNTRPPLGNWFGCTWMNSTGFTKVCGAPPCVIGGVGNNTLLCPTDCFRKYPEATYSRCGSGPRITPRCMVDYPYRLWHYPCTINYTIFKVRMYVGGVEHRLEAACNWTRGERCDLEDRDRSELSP

Row | Binder | IC50 [µg/mL]
1 | B1 | < 0.035
2 | B2 | 40
3 | B3 | 3
4 | B4 | 3
5 | B5 | > 40
